Article PMC10508983, “Nucleotide-free structures of KIF20A illuminate atypical mechanochemistry in this kinesin-6” (Open Biology, 2023)

B1: KIF20A 25–665 (domain or fragment, mouse, UniProt P97329 25-665, looked up)
chain: ESTAADLRSVVRKDLLSDCSVISASLEDKQALLEDTSEKVKVYLRIRPFLTSELDRQEDQGCVCIENTETLVLQAPKDSFALKSNERGVGQATHKFTFSQIFGPEVGQVAFFNLTMKEMVKDVLKGQNWLIYTYGVTNSGKTYTIQGTSKDAGILPQSLALIFNSLQGQLHPTPDLKPLLSNEVIWLDSKQIRQEEMKKLSLLIGGLQEEELSTSVKKRVHTESRIGASNSFDSGVAGLSSTSQFTSSSQLDETSQLWAQPDTVPVSVPADIRFSVWISFFEIYNELLYDLLEPPSHQHKRQTLRLCEDQNGNPYVKDLNWIHVRDVEEAWKLLKVGRKNQSFASTHMNQQSSRSHSIFSIRILHLQGEGDIVPKISELSLCDLAGSERCKHQKSGERLKEAGNINTSLHTLGRCIAALRQNQQNRSKQNLIPFRDSKLTRVFQGFFTGRGRSCMIVNVNPCASTYDETLHAAKFSALASQLVHAPPVHLGIPSLHSFIKKHSPQVGPGLEKEDKADSDLEDSPEDEADVSVYGKEELLQVVEAMKALLLKERQEKLQLEIQLREEICNEMVEQMQQREQWCSERLDNQKELMEELYEEKLKILKESLTTFYQEQIQERDEKIEELETLLQEAKQQPAAQQ
notes: source: E. coli NiCO21 (DE3), purified (chitin resin, HisTrap HP, size-exclusion chromatography)
B2: KIF20A 55–665 (domain or fragment, mouse, UniProt P97329 55-665, looked up)
chain: ALLEDTSEKVKVYLRIRPFLTSELDRQEDQGCVCIENTETLVLQAPKDSFALKSNERGVGQATHKFTFSQIFGPEVGQVAFFNLTMKEMVKDVLKGQNWLIYTYGVTNSGKTYTIQGTSKDAGILPQSLALIFNSLQGQLHPTPDLKPLLSNEVIWLDSKQIRQEEMKKLSLLIGGLQEEELSTSVKKRVHTESRIGASNSFDSGVAGLSSTSQFTSSSQLDETSQLWAQPDTVPVSVPADIRFSVWISFFEIYNELLYDLLEPPSHQHKRQTLRLCEDQNGNPYVKDLNWIHVRDVEEAWKLLKVGRKNQSFASTHMNQQSSRSHSIFSIRILHLQGEGDIVPKISELSLCDLAGSERCKHQKSGERLKEAGNINTSLHTLGRCIAALRQNQQNRSKQNLIPFRDSKLTRVFQGFFTGRGRSCMIVNVNPCASTYDETLHAAKFSALASQLVHAPPVHLGIPSLHSFIKKHSPQVGPGLEKEDKADSDLEDSPEDEADVSVYGKEELLQVVEAMKALLLKERQEKLQLEIQLREEICNEMVEQMQQREQWCSERLDNQKELMEELYEEKLKILKESLTTFYQEQIQERDEKIEELETLLQEAKQQPAAQQ
notes: as for B1
B3: KIF20A 1–665 (His-tagged dimeric motor construct) (domain or fragment, mouse, UniProt P97329 1-665, looked up)
chain: MSHRILSPPAGLLSDEDVVDSPILESTAADLRSVVRKDLLSDCSVISASLEDKQALLEDTSEKVKVYLRIRPFLTSELDRQEDQGCVCIENTETLVLQAPKDSFALKSNERGVGQATHKFTFSQIFGPEVGQVAFFNLTMKEMVKDVLKGQNWLIYTYGVTNSGKTYTIQGTSKDAGILPQSLALIFNSLQGQLHPTPDLKPLLSNEVIWLDSKQIRQEEMKKLSLLIGGLQEEELSTSVKKRVHTESRIGASNSFDSGVAGLSSTSQFTSSSQLDETSQLWAQPDTVPVSVPADIRFSVWISFFEIYNELLYDLLEPPSHQHKRQTLRLCEDQNGNPYVKDLNWIHVRDVEEAWKLLKVGRKNQSFASTHMNQQSSRSHSIFSIRILHLQGEGDIVPKISELSLCDLAGSERCKHQKSGERLKEAGNINTSLHTLGRCIAALRQNQQNRSKQNLIPFRDSKLTRVFQGFFTGRGRSCMIVNVNPCASTYDETLHAAKFSALASQLVHAPPVHLGIPSLHSFIKKHSPQVGPGLEKEDKADSDLEDSPEDEADVSVYGKEELLQVVEAMKALLLKERQEKLQLEIQLREEICNEMVEQMQQREQWCSERLDNQKELMEELYEEKLKILKESLTTFYQEQIQERDEKIEELETLLQEAKQQPAAQQ
notes: source: E. coli NiCO21 (DE3), purified (chitin resin, HisTrap HP, size-exclusion chromatography); not shown: His6, C-terminal, kept

Biological target: the molecule itself
Test: SEC-MALS; 5 mg ml^-1 of each protein injected into a Superdex 200 10/30 Increase column; MALS and refractive index

Stoichiometry N, 2:
B1
B2
B3
